Broadly, the Kd is the concentration at which binding is half-saturated. As a reminder, the koff is the rate constant with which the complex falls apart. The kon is the rate constant with which the complex forms.

Consider three molecules from patent publication US20240043547A1.

The target of experiment [1] is cynomolgus IL-31-His (cynomolgus monkey (Macaca fascicularis)). Put plainly: SPR (Biacore T200), cynomolgus IL-31-His captured via anti-His antibody, scFv as analyte. Background: In SPR one partner is held on a chip, and binding of the other changes the refractive index at the surface.
The target in the next experiment is human IL-31 (human) (UniProt Q6EBC2). As to the kind of experiment: cell-based or functional assay.
Sequence of human IL-31 (human) (Q6EBC2 24-164 limits assumed): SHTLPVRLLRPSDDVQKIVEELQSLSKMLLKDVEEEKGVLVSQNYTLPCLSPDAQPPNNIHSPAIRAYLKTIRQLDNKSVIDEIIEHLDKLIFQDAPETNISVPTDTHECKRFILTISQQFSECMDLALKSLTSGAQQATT

B1: PRO1901 (scFv)
scFv: AFQLTQSPSSLSASVGDRVTITCQASQSIDSWLAWYQQKPGKPPKLLIYQASKLASGVPSRFSGSGSGTDYTLTISSLQPEDFATYYCQTYYGGGHIGWGFGTGTKVTVLGGGGGSGGGGSGGGGSGGGGSQSQLVESGGGSVQPGGSLRLSCAASGFSFSANYWICWVRQAPGKGLEWIVCIYIGSRADTYYAPWAKGRFTISKDNSKNTVYLQMNSLRAEDTATYFCARFSSGIYDLDRFFLWGQGTQVTVSS
In experiment [1], B1 gave an equilibrium dissociation constant (Kd) of 1.14 nM, a koff of 0.000569 s⁻¹ and a kon of 501000 M⁻¹ s⁻¹. In the experiment with human IL-31 (human), this molecule came in with an IC50 [ng/ml], neutralization of hIL-31-induced signaling in IL-31RA/OSMR dimerization assay of 8.07 ng/mL and a rel. IC50 (IC50, BMS-981164/IC50, test sample), IL-31RA/OSMR dimerization assay of 0.78.

B2: PRO1903 (scFv)
scFv: AFQLTQSPSSLSASVGDRVTITCQASQSIESWLAWYQQKPGKPPKLLIYQASKLASGVPSRFSGSGSGTDYTLTISSLQPEDFATYYCQTYYGGGHIGWGFGTGTKVTVLGGGGGSGGGGSGGGGSGGGGSQSQLVESGGGLVQPGGSLRLSCAASGFSFSANYWICWVRQAPGKGLEWIVCIYIGSRADTYYAPWAKGRFTISKDNSKNTVYLQMNSLRAEDTAVYFCARFSSGIYDLDRFFLWGQGTLVTVSS
In the case of B2, in experiment [1], the Kd stood at 1.39 nM, the koff was 0.000605 s⁻¹ and the kon came to 434000 M⁻¹ s⁻¹. In the experiment with human IL-31 (human), the IC50 [ng/ml], neutralization of hIL-31-induced signaling in IL-31RA/OSMR dimerization assay is 7.98 ng/mL and the rel. IC50 (IC50, BMS-981164/IC50, test sample), IL-31RA/OSMR dimerization assay worked out at 1.49.

B3: PRO1902 (scFv)
scFv: AFQLTQSPSSLSASVGDRVTITCQASQSIDSWLAWYQQKPGKPPKLLIYQASKLASGVPSRFSGSGSGTDYTLTISSLQPEDFATYYCQTYYGGGHIGWGFGTGTKVTVLGGGGGSGGGGSGGGGSGGGGSQSQLVESGGGLVQPGGSLRLSCAASGFSFSANYWICWVRQAPGKGLEWIVCISIGSRADTYYAPWAKGRFTISKDNSKNTVYLQMNSLRAEDTAVYFCARFSSGIYDLDRFFLWGQGTLVTVSS
Take B3: in experiment [1], the Kd was found to be 3.38 nM, the koff came to 0.00247 s⁻¹ and the kon stood at 731000 M⁻¹ s⁻¹. In the experiment with human IL-31 (human), this molecule showed an IC50 [ng/ml], neutralization of hIL-31-induced signaling in IL-31RA/OSMR dimerization assay of 371 ng/mL and a rel. IC50 (IC50, BMS-981164/IC50, test sample), IL-31RA/OSMR dimerization assay of 0.03.
